Here are results for 15 variants from the RNAGym collection of RNA variant scans (doi:10.1093/molbev/msab373).

Sequences and labels used below:
B1: Azoarcus group I ribozyme (parent)
chain: GUGCCUUGCGCCGGGAAACCACGCAAGGGAUGGUGUCAAAUUCGGCGAAACCUAAGCGCCCGCCCGGGCGUAUGGCAACGCCGAGCCAAGCUUCGGCGCCUGCGCCGAUGAAGGUGUAGAGACUAGACGGCACCCACCUAAGGCAAACGCUAUGGUGAAGGCAUAGUCCAGGGAGUGGCGAAAGUCACACAAACCGG

This series covers variants of B1. The experiment in a line: reverse-splicing fitness (ratio to wild type); higher = more active; in vitro selection; Mg2+ level not given. The method in brief:
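An in vitro group I ribozyme library with randomized positions was T7-transcribed and gel-purified. In triplicate, 10 pmol RNA in EPPS pH 7.5 was reacted with 50 pmoles of a 30-nt RNA substrate for 1 h at 37 °C across several added MgCl2 levels (1–48 mM), then stopped with EDTA. Products were reverse transcribed from a substrate-complementary primer, PCR-amplified and sequenced (HiSeq 4000). Fitness is a variant's read proportion after selection over that before, normalised to wild type.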
For the variant GUGCCUUGCGCCGGGAAACCACGCAAGGGAUGGUGUCAAAUUCGGCGAAACCUAAGCGCCCGCCCGGGCGUAUGGCAACGCGGAGCCAAGCUUCGGCGCCUGCGCCGAUGAAGGUGUAGUGACUAGACGGCACCCACCUAAGGCGAACGUUAUGGUGAAGGCAUAGUCAAGGGAGUGGCGAAAGUCACACAAACCGG, the reverse-splicing fitness was found to be 0.00606.

As for GUGCCUUGCGCCGGGAAACCACGCAAGGGAUGGUGUCAAAUUCGGCGAAACCUAAGCGCCCGCCCGGGCGUAUGGCAACGCGGAGCCAAGCUUCGGCGCCUGCGCCGAUGAAGGUGUAGUGACUAGACGGCACCCACCUAAGGCGAACGGUAUGGUGAAGGCAUAGUCAAGGGAGUGGCGAAAGUCACACAAACCGG, the reverse-splicing fitness is 0.00872.

Take GUGCCUUGCGCCGGGAAACCACGCAAGGGAUGGUGUCAAAUUCGGCGAAACCUAAGCGCCCGCCCGGGCGUAUGGCAACGCGGAGCCAAGCUUCGGCGCCUGCGCCGAUGAAGGUGUAGUGACUAGACGGCACCCACCUAAGGCGAACGGUAUGGUGAAGGCAUAGUCGAGGGAGUGGCGAAAGUCACACAAACCGG: the reverse-splicing fitness stood at 0.0074.

For the variant GUGCCUUGCGCCGGGAAACCACGCAAGGGAUGGUGUCAAAUUCGGCGAAACCUAAGCGCCCGCCCGGGCGUAUGGCAACGCGGAGCCAAGCUUCGGCGCCUGCGCCGAUGAAGGUGUAGUGACUAGACGGCACCCACCUAAGGCGAACGGUAUGGUGAAGGCAUAGUCUAGGGAGUGGCGAAAGUCACACAAACCGG, the reverse-splicing fitness stood at 0.00739.

In the case of GUGCCUUGCGCCGGGAAACCACGCAAGGGAUGGUGUCAAAUUCGGCGAAACCUAAGCGCCCGCCCGGGCGUAUGGCAACGCGGAGCCAAGCUUCGGCGCCUGCGCCGAUGAAGGUGUAGUGACUAGACGGCACCCACCUAAGGCGAACGGUAUGGUGAAGGCAUAGUCAAGGGAGAGGCGAAAGUCACACAAACCGG, the reverse-splicing fitness amounted to 0.012.

In the case of GUGCCUUGCGCCGGGAAACCACGCAAGGGAUGGUGUCAAAUUCGGCGAAACCUAAGCGCCCGCCCGGGCGUAUGGCAACGCGGAGCCAAGCUUCGGCGCCUGCGCCGAUGAAGGUGUAGUGACUAGACGGCACCCACCUAAGGCGAACGGUAUGGUGAAGGCAUAGUCAAGGGAGCGGCGAAAGUCACACAAACCGG, the reverse-splicing fitness worked out at 0.00809.

On to GUGCCUUGCGCCGGGAAACCACGCAAGGGAUGGUGUCAAAUUCGGCGAAACCUAAGCGCCCGCCCGGGCGUAUGGCAACGCGGAGCCAAGCUUCGGCGCCUGCGCCGAUGAAGGUGUAGUGACUAGACGGCACCCACCUAAGGCGAACGGUAUGGUGAAGGCAUAGUCAAGGGAGGGGCGAAAGUCACACAAACCGG, for which the reverse-splicing fitness is 0.00485.

As for GUGCCUUGCGCCGGGAAACCACGCAAGGGAUGGUGUCAAAUUCGGCGAAACCUAAGCGCCCGCCCGGGCGUAUGGCAACGCGGAGCCAAGCUUCGGCGCCUGCGCCGAUGAAGGUGUAGUGACUAGACGGCACCCACCUAAGGCGAACGGUAUGGUGAAGGCAUAGUCCAGGGAGUGGCGAAAGUCACACAAACCGG, the reverse-splicing fitness is 0.022.

In the case of GUGCCUUGCGCCGGGAAACCACGCAAGGGAUGGUGUCAAAUUCGGCGAAACCUAAGCGCCCGCCCGGGCGUAUGGCAACGCGGAGCCAAGCUUCGGCGCCUGCGCCGAUGAAGGUGUAGUGACUAGACGGCACCCACCUAAGGCGAACGUUAUGGUGAAGGCAUAGUCCAGGGAGUGGCGAAAGUCACACAAACCGG, the reverse-splicing fitness was found to be 0.168.

Turning to GUGCCUUGCGCCGGGAAACCACGCAAGGGAUGGUGUCAAAUUCGGCGAAACCUAAGCGCCCGCCCGGGCGUAUGGCAACGCGGAGCCAAGCUUCGGCGCCUGCGCCGAUGAAGGUGUAGUGACUAGACGGCACCCACCUAAGGCGAACGAUAUGGUGAAGGCAUAGUCUAGGGAGGGGCGAAAGUCACACAAACCGG, the reverse-splicing fitness was determined as 0.00206.

GUGCCUUGCGCCGGGAAACCACGCAAGGGAUGGUGUCAAAUUCGGCGAAACCUAAGCGCCCGCCCGGGCGUAUGGCAACGCGGAGCCAAGCUUCGGCGCCUGCGCCGAUGAAGGUGUAGUGACUAGACGGCACCCACCUAAGGCGAACGAUAUGGUGAAGGCAUAGUCUAGGGAGCGGCGAAAGUCACACAAACCGG: the reverse-splicing fitness is 0.00375.

GUGCCUUGCGCCGGGAAACCACGCAAGGGAUGGUGUCAAAUUCGGCGAAACCUAAGCGCCCGCCCGGGCGUAUGGCAACGCGGAGCCAAGCUUCGGCGCCUGCGCCGAUGAAGGUGUAGUGACUAGACGGCACCCACCUAAGGCGAACGAUAUGGUGAAGGCAUAGUCUAGGGAGAGGCGAAAGUCACACAAACCGG: the reverse-splicing fitness is 0.00465.

With GUGCCUUGCGCCGGGAAACCACGCAAGGGAUGGUGUCAAAUUCGGCGAAACCUAAGCGCCCGCCCGGGCGUAUGGCAACGCGGAGCCAAGCUUCGGCGCCUGCGCCGAUGAAGGUGUAGUGACUAGACGGCACCCACCUAAGGCGAACGGUAUGGUGAAGGCAUAGUCGAGGGAGAGGCGAAAGUCACACAAACCGG, the reverse-splicing fitness came to 0.00901.

Regarding GUGCCUUGCGCCGGGAAACCACGCAAGGGAUGGUGUCAAAUUCGGCGAAACCUAAGCGCCCGCCCGGGCGUAUGGCAACGCGGAGCCAAGCUUCGGCGCCUGCGCCGAUGAAGGUGUAGUGACUAGACGGCACCCACCUAAGGCGAACGGUAUGGUGAAGGCAUAGUCGAGGGAGGGGCGAAAGUCACACAAACCGG, the reverse-splicing fitness was 0.00411.

For the variant GUGCCUUGCGCCGGGAAACCACGCAAGGGAUGGUGUCAAAUUCGGCGAAACCUAAGCGCCCGCCCGGGCGUAUGGCAACGCGGAGCCAAGCUUCGGCGCCUGCGCCGAUGAAGGUGUAGUGACUAGACGGCACCCACCUAAGGCGAACGGUAUGGUGAAGGCAUAGUCGAGGGAGCGGCGAAAGUCACACAAACCGG, the reverse-splicing fitness turned out to be 0.00637.
